Experimental data: patent US20220009959A1

Tests used:
[1] = target: CHO-K1 host cell proteins of mAb production clarified cell culture harvest (Chinese hamster (CHO-K1)); test: static binding pH 6, 150 mM NaCl
[2] = target: monoclonal antibody product of the CHO-K1 production harvest; test: static binding pH 6, 150 mM NaCl
[3] = target: CHO-K1 host cell proteins of mAb production clarified cell culture harvest (Chinese hamster (CHO-K1)); test: static binding pH 7, 20 mM NaCl; HCP ELISA over Easy-Titer (reference: mAb m53)
[4] = target: low molecular weight HCPs (10 kDa<MW<150 kDa) of CHO-K1 IgG1 harvest (Chinese hamster (CHO-K1)); test: flow-through, SEC; 1 min RT, 60 CV cut-off load
[5] = target: high molecular weight HCPs (MW>150 kDa) of CHO-K1 IgG1 harvest (Chinese hamster (CHO-K1)); test: flow-through, SEC; 1 min RT, 60 CV cut-off load
[6] = target: high molecular weight HCPs (MW>150 kDa) of CHO-K1 IgG1 harvest (Chinese hamster (CHO-K1)); test: flow-through, SEC; 10-30 CV load

Kp (partition coefficient) [1] | Kp (partition coefficient) [2] | HCP targeted binding ratio (TBR; % HCP removed / % mAb removed) [3] | percent reduction in LMW % [4] [%] | percent reduction in HMW % [5] [%] | fold reduction in HMW species [6] [fold] | Substance
7.3 | 0.75 | 4.87 | – | – | – | 4MP-Toyopearl resin
– | – | – | 36 | 50 | 2 to 4 | 6HP/4MP-Toyopearl resin
6.1 | 0.96 | – | – | – | – | 6HP-Toyopearl resin
